Experimental data as given in a protein production outcome set (Wang et al. 2014).

Test: label from the status in PepcDB records

Sequence	protein production
MIKSKGDVNILLNFRHNINGEDLIIAVAQDHETGEVLMVAYMNREALRRTLETGTAHYWSTSRGKLWLKGESSGHVQRVKDVLVDCDGDAVVLKVEQEGGACHTGYRSCFYRSIDGDELKVREDAVKVFDPEEIYGDG	not failed
MTYELSTDREFDLIAIGRACIDLNAVEYNRPMEETMTFSKYVGGSPANIVIGSSKLGLKAGFIGKIADDQHGRFIESYMRGVGVDTSNLVVDQEGHKTGLAFTEIKSPEECSILMYRQDVADLYLSPEEVNEAYIRRSKLLLVSGTALSKSPSREAVLKAIRLAKRNDVKVVFELDYRPYSWETPEETAVYYSLVAEQSDIVIGTREEFDVLENRTEKGDNDETIRYLFKHSPELIVIKHGVEGSFAYTKAGEAYRGYAYKTKVLKTFGAGDSYASAFLYALISGKGIETALKYGSASASIVVSKHSSSDAMPSVEEIEALIEKDETITIA	not failed
MTKFNYKSSLYLFNTIFLISLTTLGTMVMIPFAVESKIPKKTSNSISPFCKVLSEKFSPFGAAPDLSVALGKAIAEGGNLNQPCDIFGEKWLPLNFLLSTDEELSQRLIQTGVNVNAKDGKGDTPLHYLGKSEKNARLLLSRGAKVNVGNQNGNTPLHNLFGQKTAYVIKLLIDRGAKVNARNQEQMTPLHFAANSGKADITELLISRGGDVNARSTQNWTPLHYGASNLEVAKKLIQAGADLTIQNREGAVIHSSSLEPAVLKLLLDRGVNVNLRNRQGQTPLHIHRFQPALVKLLLARKAQVNLRDAQGKTPLYDVNLEVARQLVAANADLNVQDNLGRTPLHQAVLEEQSFFGSELVTLFLSKNARVDLKDKQGKTALDLARQLNKTQIINLLERHMATKNSPGSGTSTTKATEQLQQFLKSKNWSAADQETRRLLSPQKDLFGLNAATIPLDLIQEIDRAWLVASDGRFGLSVQAKIWQKVIASHPNNSETAANTFRDRVGWKLKVARTENDFISSDWLNESELNYSLQAPVGHLPWAGVSDASVLSLAVPPPGEHCGSCTIDAMFLRDGRFYKYLPQLFARVKMALNMNVSRPKSLAIAKK	failed
MGSKNESTASKASGTASEKKKIEYLDKTYEVTVPTDKIAITGSVESMEDAKLLDVHPQGAISFSGKFPDMFKDITDKAEPTGEKMEPNIEKILEMKPDVILASTKFPEKTLQKISTAGTTIPVSHISSNWKENMMLLAQLTGKEKKAKKIIADYEQDLKEIKTKINDKAKDSKALVIRIRQGNIYIYPEQVYFNSTLYGDLGLKAPNEVKAAKAQELSSLEKLSEMNPDHIFVQFSDDENADKPDALKDLEKNPIWKSLKAVKEDHVYVNSVDPLAQGGTAWSKVRFLKAAAEKLTQNLEHHHHHH	not failed
MLKPVALLTPRPSPSRDPAIPDWLLAGKLEPALPRPAAVVRGALLAALDQAQARPLTLLLAPPGFGKTTLLAQWHAHLSTREQGPVAWLSLDEEDADAARFLGHLALALQNAGADHALCATVLHNRDHDPRDATALLIRALRAAPRRISVILDDYDRLGSSPVDELVLRLIEHSGGRLHLVLATRRVPNLPLARLDLHAQLSRIGSTQLALDNTEAQALLGPHVPTPVVDELRNYTEGWPVALQLARLWLQGDTQRQQEVAARFSGRSAQIAAYLAEQVVNDLDPDTRELLLRTSPLERFNAALADAVRQREDSGRLLARLEHFHGLLVPLDGEREWFRYHPLFADFLQQLLDREHPGQSVQLHQRAARWFGDHQHLAEAVRHAWRGNCGELAASYIARAGTWQLLLTHGTHEVRALLRHFDHRTIRDTPALNLTQAHLHIRLGEFSHARLLLERFRDFPAALREPLQRDYTVVVALLRDRLDEICGNPHGLTQIAAQAGALDEDDHLGRGMLLCICATTAIAQGAFAVAERYARNARDTMQRGGSDVGASQAMLSLGQSLFYRGRLSDAEACYQQALSWCARTPQLDRVLEAAAQCLLAQSHYERGHHDDAADLLHPALELLEQHDGGMDVLAAGYGTALGLERVRDHSGRSALLLLEHIEQIAHGRKLARLSELAAAWRLMLLLEHPGNAAIDVLIARTGGESGLAHTLRSPHRWHDRAAMGFALARWHRLAGRSSAALSILGQIEQACLANDNVCHLARTRARIALVLQQRGELVAALPYLYSALDHVALTQSWQAIVELGLPAKAMLRSLRQHDPQTVGGTTRALTIQALLERLSGDDDPAGDIFSERELEVLAQLARGYSNKQIARCLHLSENTVKFHLKNLYRKLDARSREGALAQALQRGLLRGSNQHADQPLQPD	failed
MVASAPASAGTKGVIRQVIGPVLDVEFPAGKLPKIYNALRVETKNTAGQDVALTAEVQQLLGDHRVRAVAMSGTDGLVRGMEIADTGAPISVPVGEATLGRIFNVLGEPVDEQGPVNASATAPIHRDAPNLTELETKPKVFETGIKVIDLLAPYRQGGKVGLFGGAGVGKTVLIQELINNIAKEHGGVSVFGGVGERTREGNDLYEEFKESGVINADDLSKSKVALCYGQMNEPPGARMRVGLSALTMAEHFRDVNKQDVLLFVDNIFRFVQAGSEVSALLGRMPSAVGYQPTLGTDVGALQERVASTVEGSITSIQAVYVPADDLTDPAPATTFAHLDATTVLNRALASKGIYPAVDPLDSTSTMLQPAVVGDEHYRTARLVQSTLQRYKELQDIIAILGLDELSEDDRQTVDRARKVEKFLSQPFFVAEIFTGMPGKYVKLEETIAGFNQILAGELDHLPEAAFYLVGSIEEAKAKAEKIAAETK	failed
MWPNGSSLGPCFRPTNITLEERRLIASPWFAASFCVVGLASNLLALSVLAGARQGGSHTRSSFLTFLCGLVLTDFLGLLVTGTIVVSQHAALFEWHAVDPGCRLCRFMGVVMIFFGLSPLLLGAAMASERYLGITRPFSRPAVASQRRAWATVGLVWAAALALGLLPLLGVGRYTVQYPGSWCFLTLGAESGDVAFGLLFSMLGGLSVGLSFLLNTVSVATLCHVYHGQEAAQQRPRDSEVEMMAQLLGIMVVASVCWLPLLVFIAQTVLRNPPAMSPAGQLSRTTEKELLIYLRVATWNQILDPWVYILFRRAVLRRLQPRLSTRPRRVSLCGPAWSTVARSRLTATSASRVQAILVPQPPEQLGLQA	failed
MQASENSHDDFLFIDDSDEDEILAFGSNETWQVLIVDDDPEIHSVTQLALSDLVVLGRRLEYLHAYSGKDACQLIENNDDIVLVLLDVVMETDDAGLNVVKYIRETLQRKDIRIVLRTGQPGYAPEESVIKEYDINDYKTKTELTRRKLVTTVFAAIRSFQQIATVNENRQGLEKIVSGATELSSQHSLPTFSQSVLSQLRTLISDDISAVFCARGQGIIDNIDDLSFYVLAQIGFDDSLLNQKIDTLQDNQANKQVKACFLQQKHQYLDDSLDLYVAKGDYRAVIHVRLSSPLTEIQTQLLNVFLTGVAVGYENVHLFQKLTNAAYRDWLTNLPNRLEFVRLLDSFAQNDCKNTVAALIDINHFSDINDALGQDIGNKLLSAVGQRIQSIGSDCQLARVGADVFGIIGPADCLTPESLIALFHQPFAAGEQHLPINACFGLCTKEHAQSSGVQVLNQINIALNIAKKNRLEHFAYYHSDIEDQMQWRLNMIRQLRNDFGNNCLELWYQPQLSLTTGKVIGAEALLRWRTADGKFVSPAVFIPLAEYSGLIIEIGDWVISQACKQLKVLEENFSDLSISVNVSIPQFRQDNFVDNIINTMTQYGIKPNKLELEITENILMDEPQIIIDALTKLKAQGISIALDDFGTGFSSLSYLQKLPLNRLKVDRAFVTDINKEGQSVIAETIINLGKKMQLKVIAEGIEEIEQQERLIELGCDEVQGFYYAKPMPADEFINFLHQQS	failed
MSLEWCKNRLEITGRSVFVDIMQQWVTGEEVPLYRHAIQQSIRLFLAGCAGILKPVKCMEYPPFPRLVSHGTGSAVASNLAFQHWLDLLLKDAVLDGDTIRQIDRIYLQSGIASVKWETIPEGARQIITQLMARQYPDWFGVASWSSHINGADCWTKLGVMQEHACNCDMLMIIPTRLAIELNGNSQLLTGVSTTHDLYSHLYGMAWPSGQNIIWQRDRINSLRLDFDSPSYPPSAELMGELSAVFDCEIRHWYQEPVNGIRGYDCYDRGDHVDSGEYGAGPFLPPLKVEEVTVNGQEEAAEGHHHHHH	not failed
DKIAIIGSRRMSVYTKNCVFSLASMLKNAHLCVVSGGALGVDITASMAAMPNTIGIFANGLDQIYPRTNEKIIKQIYENALALSEYEDDYLPKNYDFLLRNRLVIALSKAVVVAQADIKSGSMQSAKLALELNKPLYVLPQRLGESTATNLLLKENKAKLICDFKEFVSEFASID	failed
MELLFIIAAFVMGFIALKINLPPLVGFLLAGFGLHALGFQSNDALETFADLGVTLLLFSIGLKLDIKTLLAKEIWLGATLHNVFSTLFFTFALLGLKLLGINMLANIETAQLVLFGFALSFSSTVFAVKALQEKGEMNATYGTLAIGILVMQDIFAVVFLTASTGKIPEITALALFALPLFRPLFFKLLDWAGHGEMLVLYGIFLALVAGAGTFELVGMKPDLGALILGMLLAGHAKASELSKSLFNLKEVLLICFFLNIGLSAAPTISGLGLALILILLLPVKGFLYFIIINKFKFRVRTSLLASLTLFNYSEFGLIVGGLAFKMGWLPADTLVAIAIAVSISFIISAPLNNFGHTIYQRSRHWLKEHTAERLNPMDKLINPGRAQILILGMGRIGSGAYDELKEKYGDIILGIELREESAKQHQELGRNVISGDATDPDFWERILSTSHVKLVLLAMPNHQGNQFALEQLQTRNYQGQTAAIAAYNDQIDGLIEQGVDAAFNIYHEAGSGFARHVSEQLDPQFNHHKDYITH	failed
MVMEKALTLQQMPDFIVSTIPKGQASYLVFGERSIGKKDVIDIVIKQLEKIGFRTGVEQVPSVGETYKNQTLNSIMDKITGKTEVRDKNTIIKEYDEFTRNNKEKIVIAVYGVEKLSMESKNLFLYMCRISRNRNVTLIGTYNADSTDEYDRFINLIASEDYINIIKIEKPTIEDIAFLVKKMGYKLPDDFVKEIARLTNYNIDSMKYALRYYQDLGVINDRKEINTVSFRYIPVPPTTELYYEKMINSLTDLEKNVAYLMVMLSNDIDVDSAAIILNRKRTEVLNIIRKLEDKGLVKFNGQVVGFYSDKIRRSVEKSMKTSDIAYMTSLIESSQLFMRMPPAQRMHILMKANKLDEIRDIIKEKGQSLVDGYNSVDEVIEDLEQLGNVFSEDSDVKKVLCHAYYLKGRFDKAISCYMDIKPDHDLDSMIDLSSIYSNMGKFEEAEKILEDAKNNFTDDYPQTIISYRIAALYYRMGRYKDTIDMLTPLLGKIDAENMSGVKAGILNILGNIDMTSYRYGDALKKYNEALEINRKLSNYAEISRNLNNIALIDVYTGKYDLAISILKELIETTYSTGDLVSRIYAIYNLSEIYYVIGKQEYAEGYIPLMMRILDVVSEKRVSFHIYRFLTMYYVGLLDFKMAKKYAELAIENAIMEDQKIMAIIFHKIINYVLTGEDPNIDTQEIDSTNFTDDYTSTFLIALAYYYRIIENQEMAKHYVDMAEEAAYKMKIPYVIVNASFHKAVILLSIGDLDGFRRHFERMQKPPTTIQFYDDSFEIFRSIYDGNFDAIKSSKYRIIEEDHVNGTLKGLMPVILNAFALYKFSGIPDDLHHLINVTPEPYSRLLALITNYH	failed
MNQNNHFRLTLSTLLQQCQQDITSLPTAMRAVFSWQRGLNELKTLRRTTKLMMSTMLIVTIIGFILGRDYSLHGWIGLLTGITVVINLILVDQGRLTNYSWGIIACAAWLTTAITNRLIGDIASQSFYLIMQFVGITVWHRKMAAQPDASELTGRKLSKLAGCAWFALAVLVYAIVLHFSKQLNGNQIYLDATLLPLGIVGSVLMVNGYRSQWVAWITLDVINVIIWFNQLKGFSPAAASMLALQLVMLANALYGAYLWFFGQNTQQDKLDTH	failed
MQAKLRLWLTFCVVTPVLLLFGNAGLAEQTPAPKVLKPVTSKAVGVTPRGQVLSLSCSSCHGTDGKSVGIMPSFYGKTPQYIETALLEFKSGKRYSTVMGRHAKGYSDDEIHLIAQYCGIKGQKTK	failed
LKPLSIIYNGKSGFHASDKEGVYEQIMTLFTRYDFEIQVFELNEKITFDELMEQVLLRHLNLNTSEYKGVIVAAGGDGTLNAVASRLVDTPIPMGILPLGTFNYVARVLNIPLDLLAAAEVIADGTIRSVHVATINDRIYLNNASLG	failed
AMPIAKAIEEKWGVPAEVVIAQAALESGWGKHVKGNAYFGIKGKGSQGSINFGTHEVINGKKISINDNFASYGGFGDAANGYGEFLNKNKRYREAFKHKDNPVEFAKAIARAGYATDPDYANKLTKIIQSNKFS	not failed
